Consider one substance from patent publication US5461032.

For this assay, the target named is voltage-sensitive sodium channel of nerve membrane (house fly, Musca domestica, third instar larvae) (Musca domestica).

“toxin 4 of the scorpion Leiurus quinquestriatus (peptide)” gave an activity of insect peripheral nerve preparations greater than 500 nM.
